According to PMC4669242 (Bioorganic & medicinal chemistry letters, 2013):

Assays:
[1] = test system: human red blood cells (hRBCs); test: Hemolysis assay, release of hemoglobin; format: cell-based; conditions: hRBCs in PBS pH 7.4, 1 h, 37 °C, OD405; average of two independent experiments
[2] = test system: E. coli; test: Leakage of intracellular β-galactosidase; format: cell-based, E. coli (ATCC 25922); conditions: 1 h of treatment, 37 °C, ONPG, OD405, average of three independent experiments

In the case of Melittin, the “concentration inducing hemolysis (lowest concentration tested)” value [1] is reported as ≤ 1000 nM and the “increase in β-galactosidase release as compared to control buffer” value [2] is reported as 8 fold.
